According to patent publication US20210032299A1 (Eli Lilly, published 2021):
Starred links: 1 amine or outer side, 2 acyl side, 3 side chain; linkers in the order of their positions; H or OH if unused. Non-standard residues stand in square brackets, D forms with d. Groups on a side chain read outwards from the residue. No end group written: not given here. *: point of attachment. C20 diacid = O=C(O)CCCCCCCCCCCCCCCCCCC(=O)*; C18 diacid = O=C(O)CCCCCCCCCCCCCCCCC(=O)*; αMePhe(2-F) = C[C@](N)(Cc1ccccc1F)C(=O)O; γGlu = O=C(O)[C@H](CCC(=O)[*:2])N[*:1]; αMeF = C[C@](N)(Cc1ccccc1)C(=O)O; 4Pal = N[C@@H](Cc1ccncc1)C(=O)O; AEEA = NCCOCCOCC(=O)O; Aib = CC(C)(N)C(=O)O

Tests used:
[1] = target: T1, human glucose-dependent insulinotropic polypeptide (GIP) receptor (human, UniProt P48546 22-466); experiment: SPA, displacement of [125I]-GIP from hGIPR membranes, 0.1% bacitracin
T1 construct: whole, on cells; Assayed as crude membranes of stably transfected CHO cells; also called hGIPR; human GIP receptor
T1 sequence (looked up): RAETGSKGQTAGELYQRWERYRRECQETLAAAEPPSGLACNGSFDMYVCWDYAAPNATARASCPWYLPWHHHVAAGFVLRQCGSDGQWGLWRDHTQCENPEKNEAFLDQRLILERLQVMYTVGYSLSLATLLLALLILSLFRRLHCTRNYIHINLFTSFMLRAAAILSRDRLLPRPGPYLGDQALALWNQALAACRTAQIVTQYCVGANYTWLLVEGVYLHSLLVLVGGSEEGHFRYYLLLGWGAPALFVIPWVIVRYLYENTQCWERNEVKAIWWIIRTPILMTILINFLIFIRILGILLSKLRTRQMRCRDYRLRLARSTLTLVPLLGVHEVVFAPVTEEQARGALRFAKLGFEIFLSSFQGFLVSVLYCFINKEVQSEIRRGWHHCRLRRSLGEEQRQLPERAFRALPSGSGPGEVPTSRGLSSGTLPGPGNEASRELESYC

human glucagon receptor = target: T2, human glucagon receptor (human, UniProt P47871 26-477); experiment: SPA, displacement of [125I]-Gcg from hGcgR membranes, 0.1% bacitracin
T2 construct: whole, on cells; Assayed as crude membranes of stably transfected HEK293 cells; also called hGcgR; GcgR
Summary of the method: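 Binding buffer: 25 mM HEPES pH 7.4, 2.5 mM CaCl₂, 1 mM MgCl₂, 0.003% Tween-20, protease inhibitors without EDTA. Counted by scintillation after 12 h incubation/settling at room temperature. Four-parameter nonlinear fit; Kᵢ given as geometric mean ± SEM of independent replicates run on different days.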

human GLP-1 receptor = target: T3, human GLP-1 receptor (human, UniProt P43220 24-463); experiment: SPA, displacement of [125I]-GLP-1 from hGLP-1R membranes, 0.1% bacitracin
T3 construct: whole, on cells; Assayed as crude membranes of stably transfected HEK293 cells; also called hGLP1R; hGLP-1R
Summary of the method: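 Binding buffer: 25 mM HEPES pH 7.4, 2.5 mM CaCl₂, 1 mM MgCl₂, 0.1% bacitracin, 0.003% Tween-20, protease inhibitors without EDTA. Four-parameter nonlinear regression; Kᵢ given as geometric mean ± SEM, n = independent replicates run on different days.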

T2 sequence (P47871 26-477): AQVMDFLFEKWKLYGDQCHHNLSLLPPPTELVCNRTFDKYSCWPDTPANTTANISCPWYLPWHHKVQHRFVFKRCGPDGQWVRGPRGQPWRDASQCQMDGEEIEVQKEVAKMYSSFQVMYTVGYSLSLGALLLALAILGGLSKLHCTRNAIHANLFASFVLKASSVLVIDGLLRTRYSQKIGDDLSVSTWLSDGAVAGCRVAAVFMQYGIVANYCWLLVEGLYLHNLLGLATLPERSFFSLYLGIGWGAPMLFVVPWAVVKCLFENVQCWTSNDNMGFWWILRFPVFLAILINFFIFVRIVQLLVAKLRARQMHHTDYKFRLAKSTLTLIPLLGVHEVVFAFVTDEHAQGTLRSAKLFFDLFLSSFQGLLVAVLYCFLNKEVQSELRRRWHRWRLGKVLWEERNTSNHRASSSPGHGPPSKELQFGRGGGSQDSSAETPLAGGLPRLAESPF

B1: Example 37 (peptide)
peptide: Y[Aib]EGT[αMePhe(2-F)]ISDYSIALDKK([AEEA-AEEA-γGlu-C20 diacid])HQ[Aib]DFVEYLLEGGPSSGAPPPS-NH2
modifications: N-terminus assumed
SMILES: CC[C@H](C)[C@H](NC(=O)[C@H](CO)NC(=O)[C@H](Cc1ccc(O)cc1)NC(=O)[C@H](CC(=O)O)NC(=O)[C@H](CO)NC(=O)[C@@H](NC(=O)[C@](C)(Cc1ccccc1F)NC(=O)[C@@H](NC(=O)CNC(=O)[C@H](CCC(=O)O)NC(=O)C(C)(C)NC(=O)[C@@H](N)Cc1ccc(O)cc1)[C@@H](C)O)[C@@H](C)CC)C(=O)N[C@@H](C)C(=O)N[C@@H](CC(C)C)C(=O)N[C@@H](CC(=O)O)C(=O)N[C@@H](CCCCN)C(=O)N[C@@H](CCCCNC(=O)COCCOCCNC(=O)COCCOCCNC(=O)CC[C@H](NC(=O)CCCCCCCCCCCCCCCCCCC(=O)O)C(=O)O)C(=O)N[C@@H](Cc1c[nH]cn1)C(=O)N[C@@H](CCC(N)=O)C(=O)NC(C)(C)C(=O)N[C@@H](CC(=O)O)C(=O)N[C@@H](Cc1ccccc1)C(=O)N[C@H](C(=O)N[C@@H](CCC(=O)O)C(=O)N[C@@H](Cc1ccc(O)cc1)C(=O)N[C@@H](CC(C)C)C(=O)N[C@@H](CC(C)C)C(=O)N[C@@H](CCC(=O)O)C(=O)NCC(=O)NCC(=O)N1CCC[C@H]1C(=O)N[C@@H](CO)C(=O)N[C@@H](CO)C(=O)NCC(=O)N[C@@H](C)C(=O)N1CCC[C@H]1C(=O)N1CCC[C@H]1C(=O)N1CCC[C@H]1C(=O)N[C@@H](CO)C(N)=O)C(C)C
Q: How did the Ki [1] turn out when B1 was run?
A: 0.026 nM

Q: What about the Ki (human glucagon receptor) of the same binder?
A: 51.4 nM

Q: What about the Ki (human GLP-1 receptor) of the same binder?
A: 83.9 nM

B2: Example 40 (peptide)
peptide: Y[Aib]EGT[αMePhe(2-F)]ISDYSIALDKK([AEEA-AEEA-γGlu-C20 diacid])HQ[Aib]DFVEWLLETGPSSGAPPPS-NH2
modifications: N-terminus assumed
SMILES: CC[C@H](C)[C@H](NC(=O)[C@H](CO)NC(=O)[C@H](Cc1ccc(O)cc1)NC(=O)[C@H](CC(=O)O)NC(=O)[C@H](CO)NC(=O)[C@@H](NC(=O)[C@](C)(Cc1ccccc1F)NC(=O)[C@@H](NC(=O)CNC(=O)[C@H](CCC(=O)O)NC(=O)C(C)(C)NC(=O)[C@@H](N)Cc1ccc(O)cc1)[C@@H](C)O)[C@@H](C)CC)C(=O)N[C@@H](C)C(=O)N[C@@H](CC(C)C)C(=O)N[C@@H](CC(=O)O)C(=O)N[C@@H](CCCCN)C(=O)N[C@@H](CCCCNC(=O)COCCOCCNC(=O)COCCOCCNC(=O)CC[C@H](NC(=O)CCCCCCCCCCCCCCCCCCC(=O)O)C(=O)O)C(=O)N[C@@H](Cc1c[nH]cn1)C(=O)N[C@@H](CCC(N)=O)C(=O)NC(C)(C)C(=O)N[C@@H](CC(=O)O)C(=O)N[C@@H](Cc1ccccc1)C(=O)N[C@H](C(=O)N[C@@H](CCC(=O)O)C(=O)N[C@@H](Cc1c[nH]c2ccccc12)C(=O)N[C@@H](CC(C)C)C(=O)N[C@@H](CC(C)C)C(=O)N[C@@H](CCC(=O)O)C(=O)N[C@H](C(=O)NCC(=O)N1CCC[C@H]1C(=O)N[C@@H](CO)C(=O)N[C@@H](CO)C(=O)NCC(=O)N[C@@H](C)C(=O)N1CCC[C@H]1C(=O)N1CCC[C@H]1C(=O)N1CCC[C@H]1C(=O)N[C@@H](CO)C(N)=O)[C@@H](C)O)C(C)C
Q: For B2, which Ki [1] is on record?
A: 0.0594 nM

Q: And the Ki (human glucagon receptor)?
A: 50.9 nM

Q: What about the Ki (human GLP-1 receptor) of the same binder?
A: 302 nM

B3: Example 30 (peptide)
peptide: Ac-[dY]AEGT[αMePhe(2-F)]ISDYSIALDKK([AEEA-AEEA-γGlu-C18 diacid])HQ[Aib]EFVNYLLAGGPSSGAPPPS-NH2
SMILES: CC[C@H](C)[C@H](NC(=O)[C@H](CO)NC(=O)[C@H](Cc1ccc(O)cc1)NC(=O)[C@H](CC(=O)O)NC(=O)[C@H](CO)NC(=O)[C@@H](NC(=O)[C@](C)(Cc1ccccc1F)NC(=O)[C@@H](NC(=O)CNC(=O)[C@H](CCC(=O)O)NC(=O)[C@H](C)NC(=O)[C@@H](Cc1ccc(O)cc1)NC(C)=O)[C@@H](C)O)[C@@H](C)CC)C(=O)N[C@@H](C)C(=O)N[C@@H](CC(C)C)C(=O)N[C@@H](CC(=O)O)C(=O)N[C@@H](CCCCN)C(=O)N[C@@H](CCCCNC(=O)COCCOCCNC(=O)COCCOCCNC(=O)CC[C@H](NC(=O)CCCCCCCCCCCCCCCCC(=O)O)C(=O)O)C(=O)N[C@@H](Cc1c[nH]cn1)C(=O)N[C@@H](CCC(N)=O)C(=O)NC(C)(C)C(=O)N[C@@H](CCC(=O)O)C(=O)N[C@@H](Cc1ccccc1)C(=O)N[C@H](C(=O)N[C@@H](CC(N)=O)C(=O)N[C@@H](Cc1ccc(O)cc1)C(=O)N[C@@H](CC(C)C)C(=O)N[C@@H](CC(C)C)C(=O)N[C@@H](C)C(=O)NCC(=O)NCC(=O)N1CCC[C@H]1C(=O)N[C@@H](CO)C(=O)N[C@@H](CO)C(=O)NCC(=O)N[C@@H](C)C(=O)N1CCC[C@H]1C(=O)N1CCC[C@H]1C(=O)N1CCC[C@H]1C(=O)N[C@@H](CO)C(N)=O)C(C)C
Q: Which Ki [1] does the source give for B3 here?
A: 0.037 nM

Q: What about the Ki (human glucagon receptor) of the same binder?
A: 407 nM

Q: And the Ki (human GLP-1 receptor)?
A: 26.5 nM

B4: Example 33 (peptide)
peptide: Ac-[dY]AEGT[αMePhe(2-F)]ISDYSIALDKK([AEEA-AEEA-γGlu-C20 diacid])HQ[Aib]EFVNYLLEGGPSSGAPPPS-NH2
SMILES: CC[C@H](C)[C@H](NC(=O)[C@H](CO)NC(=O)[C@H](Cc1ccc(O)cc1)NC(=O)[C@H](CC(=O)O)NC(=O)[C@H](CO)NC(=O)[C@@H](NC(=O)[C@](C)(Cc1ccccc1F)NC(=O)[C@@H](NC(=O)CNC(=O)[C@H](CCC(=O)O)NC(=O)[C@H](C)NC(=O)[C@@H](Cc1ccc(O)cc1)NC(C)=O)[C@@H](C)O)[C@@H](C)CC)C(=O)N[C@@H](C)C(=O)N[C@@H](CC(C)C)C(=O)N[C@@H](CC(=O)O)C(=O)N[C@@H](CCCCN)C(=O)N[C@@H](CCCCNC(=O)COCCOCCNC(=O)COCCOCCNC(=O)CC[C@H](NC(=O)CCCCCCCCCCCCCCCCCCC(=O)O)C(=O)O)C(=O)N[C@@H](Cc1c[nH]cn1)C(=O)N[C@@H](CCC(N)=O)C(=O)NC(C)(C)C(=O)N[C@@H](CCC(=O)O)C(=O)N[C@@H](Cc1ccccc1)C(=O)N[C@H](C(=O)N[C@@H](CC(N)=O)C(=O)N[C@@H](Cc1ccc(O)cc1)C(=O)N[C@@H](CC(C)C)C(=O)N[C@@H](CC(C)C)C(=O)N[C@@H](CCC(=O)O)C(=O)NCC(=O)NCC(=O)N1CCC[C@H]1C(=O)N[C@@H](CO)C(=O)N[C@@H](CO)C(=O)NCC(=O)N[C@@H](C)C(=O)N1CCC[C@H]1C(=O)N1CCC[C@H]1C(=O)N1CCC[C@H]1C(=O)N[C@@H](CO)C(N)=O)C(C)C
Q: How did the Ki [1] turn out when B4 was run?
A: 0.0369 nM

Q: What about the Ki (human glucagon receptor) of the same binder?
A: 63.5 nM

Q: What about the Ki (human GLP-1 receptor) of the same binder?
A: 31.2 nM

B5: Example 44 (peptide)
peptide: Y[Aib]EGT[αMeF]ISDYSIALDKK([AEEA-AEEA-γGlu-C20 diacid])HQ[Aib]DFVE[4Pal]LLEGGPSSGAPPPS-NH2
modifications: N-terminus assumed
SMILES: CC[C@H](C)[C@H](NC(=O)[C@H](CO)NC(=O)[C@H](Cc1ccc(O)cc1)NC(=O)[C@H](CC(=O)O)NC(=O)[C@H](CO)NC(=O)[C@@H](NC(=O)[C@](C)(Cc1ccccc1)NC(=O)[C@@H](NC(=O)CNC(=O)[C@H](CCC(=O)O)NC(=O)C(C)(C)NC(=O)[C@@H](N)Cc1ccc(O)cc1)[C@@H](C)O)[C@@H](C)CC)C(=O)N[C@@H](C)C(=O)N[C@@H](CC(C)C)C(=O)N[C@@H](CC(=O)O)C(=O)N[C@@H](CCCCN)C(=O)N[C@@H](CCCCNC(=O)COCCOCCNC(=O)COCCOCCNC(=O)CC[C@H](NC(=O)CCCCCCCCCCCCCCCCCCC(=O)O)C(=O)O)C(=O)N[C@@H](Cc1c[nH]cn1)C(=O)N[C@@H](CCC(N)=O)C(=O)NC(C)(C)C(=O)N[C@@H](CC(=O)O)C(=O)N[C@@H](Cc1ccccc1)C(=O)N[C@H](C(=O)N[C@@H](CCC(=O)O)C(=O)N[C@@H](Cc1ccncc1)C(=O)N[C@@H](CC(C)C)C(=O)N[C@@H](CC(C)C)C(=O)N[C@@H](CCC(=O)O)C(=O)NCC(=O)NCC(=O)N1CCC[C@H]1C(=O)N[C@@H](CO)C(=O)N[C@@H](CO)C(=O)NCC(=O)N[C@@H](C)C(=O)N1CCC[C@H]1C(=O)N1CCC[C@H]1C(=O)N1CCC[C@H]1C(=O)N[C@@H](CO)C(N)=O)C(C)C
Q: Which results are given for B5?
A: Ki [1]: 0.059 nM; Ki (human glucagon receptor): 50 nM; Ki (human GLP-1 receptor): 209 nM
